From patent US20250269051A1 (ALMAC DISCOVERY, published 2025)
Residue numbers refer to the chain shown, from its start. Values belong to the binder of their own block, whether it stands above or below them.

Experiments:
human ROR1-Fc (CHO) = biological target: T1, human ROR1-Fc (CHO) (human); assay: ELISA on coated human ROR1-hFc, one concentration (5 µg/mL)
T1 construct: ROR1 extracellular domain fused to human Fc; also called huROR1-Fc; hROR1-Fc
Description: (§1) In brief, ELISA method as follows. Wells coated with 100ng of ROR1-hFc antigen and incubated, covered, at room temperature for 2 hr. Plates washed 3×400ul per well with PBST (PBS+0.05% Tween 20 (v/v)), then blocked with 4% skimmed milk powder (w/v) in PBST for 1 hour at 37° C. Plates washed as before plus additional wash in PBS alone. HisMyc-tagged binding proteins were diluted in 4% milk PBST and incubated overnight at 4° C. Plates washed 3× with PBST, 3× PBS and binding detected using appropriate secondary detection antibody in 4% milk PBST, room temperature 1 hour. Secondary antibodies used include: [0658] Anti-c-Myc, HRP (Invitrogen #R951-25) [0659] Mouse anti-polyHis, HRP (Sigma #A7058)

human ROR2-Fc (CHO) = biological target: T2, human ROR2-Fc (CHO) (human); assay: ELISA; hROR2-hFc coated
T2 construct: also called hROR2-hFc
Description: as §1
The same ELISA procedure was employed as described above but with either mROR1-hFc or hROR2-hFc coated on the plates.

T1 sequence (chain, as listed by the source limits assumed): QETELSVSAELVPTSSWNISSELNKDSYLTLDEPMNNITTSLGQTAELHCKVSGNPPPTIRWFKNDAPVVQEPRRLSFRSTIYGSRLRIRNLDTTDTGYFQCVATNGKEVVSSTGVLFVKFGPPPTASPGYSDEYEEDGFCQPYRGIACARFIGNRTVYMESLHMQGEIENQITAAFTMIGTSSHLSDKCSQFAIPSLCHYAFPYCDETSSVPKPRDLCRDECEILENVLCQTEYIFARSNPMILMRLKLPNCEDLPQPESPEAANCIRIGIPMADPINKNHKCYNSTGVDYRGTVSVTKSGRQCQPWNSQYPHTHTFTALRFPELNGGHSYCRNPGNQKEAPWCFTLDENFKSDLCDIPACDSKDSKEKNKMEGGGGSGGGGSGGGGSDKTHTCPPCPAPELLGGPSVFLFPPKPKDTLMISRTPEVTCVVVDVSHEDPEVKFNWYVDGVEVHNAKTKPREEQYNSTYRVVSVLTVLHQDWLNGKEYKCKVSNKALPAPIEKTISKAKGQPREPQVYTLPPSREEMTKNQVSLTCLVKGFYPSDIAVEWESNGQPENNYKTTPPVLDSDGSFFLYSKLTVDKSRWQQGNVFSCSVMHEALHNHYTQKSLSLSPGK
T2 sequence (chain, as listed by the source limits assumed): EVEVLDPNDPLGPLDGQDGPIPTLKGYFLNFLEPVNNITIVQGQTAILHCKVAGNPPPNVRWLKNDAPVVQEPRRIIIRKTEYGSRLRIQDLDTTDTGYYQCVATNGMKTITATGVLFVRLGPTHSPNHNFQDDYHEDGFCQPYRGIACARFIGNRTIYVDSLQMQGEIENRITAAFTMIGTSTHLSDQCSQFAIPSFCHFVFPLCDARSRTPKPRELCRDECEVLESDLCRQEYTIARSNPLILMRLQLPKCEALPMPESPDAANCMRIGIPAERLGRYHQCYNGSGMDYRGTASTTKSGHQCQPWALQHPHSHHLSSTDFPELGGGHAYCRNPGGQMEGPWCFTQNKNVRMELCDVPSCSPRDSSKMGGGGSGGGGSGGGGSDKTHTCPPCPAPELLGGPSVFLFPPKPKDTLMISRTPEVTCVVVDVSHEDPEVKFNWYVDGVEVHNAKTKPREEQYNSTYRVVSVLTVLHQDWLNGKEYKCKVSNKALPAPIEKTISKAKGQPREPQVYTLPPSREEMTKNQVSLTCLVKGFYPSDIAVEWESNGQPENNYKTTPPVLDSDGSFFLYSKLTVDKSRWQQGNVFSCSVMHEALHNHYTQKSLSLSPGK

- binding result (human ROR1-Fc (CHO)): binds
B1: AA5.S (VNAR)
VNAR: TRVDQSPSSLSASVGDRVTITCVLTGTGYGLYSSTYWYRKNPGSSDEERIIIGGRYSESVNKGSKSFTLTISSLQPEDSATYYCRAREARHPWLRQWYDGAGTKVEIKQ
notes: P3A1 G1 loop variant from the selection on streptavidin beads; also called P3A1 G1 loop variant AA5.S

- binding result (human ROR2-Fc (CHO)): no binding
B2: NAC6.S (VNAR)
VNAR: B1 VNAR with G26D, G28R, G30A, S45T, I51S
notes: VNAR, P3A1 G1 loop variant; entry includes the HisMyc tag; also called P3A1 G1 NAC6.S; P3A1G1 NAC6.S

- binding result (human ROR2-Fc (CHO)): no binding
B3: AE3.S (VNAR)
VNAR: B1 VNAR with G28R, I51S, G53S, S64T
notes: VNAR, P3A1 G1 loop variant; entry includes the HisMyc tag; also called P3A1 G1 AE3.S; P3A1G1 AE3.S

- binding result (human ROR1-Fc (CHO)): binds
B4: AC5.S (VNAR)
VNAR: B1 VNAR with G26D, G28S, D46N, E47K, I50M, I51S, G53S
notes: P3A1 G1 loop variant from the immunotube selection; also called P3A1 G1 loop variant AC5.S
